Experimental data reported in patent US20250145697A1 (WASHINGTON UNIVERSITY, published 2025).

T1: ApoE4 amino acids 24-164, expressed on yeast (human, UniProt P02649 42-182)
T1 construct: with myc tag, on yeast cells; range counts on the mature protein; also called helix1 + 2 + 3 + 4
T1 chain: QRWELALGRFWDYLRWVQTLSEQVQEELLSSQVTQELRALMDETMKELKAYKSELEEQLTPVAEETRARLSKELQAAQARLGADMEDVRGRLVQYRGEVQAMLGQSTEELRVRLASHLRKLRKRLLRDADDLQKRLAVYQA

T2: ApoE4 amino acids 54-164, expressed on yeast (human, UniProt P02649 72-182)
T2 construct: with myc tag, on yeast cells; expression in yeast printed as Low; range counts on the mature protein; also called helix2 + 3 + 4
T2 chain: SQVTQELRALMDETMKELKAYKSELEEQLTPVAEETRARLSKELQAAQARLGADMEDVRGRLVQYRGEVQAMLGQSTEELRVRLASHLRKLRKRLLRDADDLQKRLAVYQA

T3: ApoE4 amino acids 1-210, expressed on yeast (human, UniProt P02649 19-228)
T3 construct: with myc tag, on yeast cells; range counts on the mature protein; also called N terminal domain; not shown: myc tag and yeast surface-display partner
T3 chain: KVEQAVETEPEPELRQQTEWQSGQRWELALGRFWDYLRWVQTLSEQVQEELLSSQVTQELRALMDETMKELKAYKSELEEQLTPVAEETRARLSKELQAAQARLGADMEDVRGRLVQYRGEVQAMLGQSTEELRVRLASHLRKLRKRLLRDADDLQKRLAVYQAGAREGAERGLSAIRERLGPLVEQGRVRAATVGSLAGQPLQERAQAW

T4: ApoE4 amino acids 1-164, expressed on yeast (human, UniProt P02649 19-182)
T4 construct: with myc tag, on yeast cells; range counts on the mature protein; also called up to helix 4; not shown: myc tag and yeast surface-display partner
T4 chain: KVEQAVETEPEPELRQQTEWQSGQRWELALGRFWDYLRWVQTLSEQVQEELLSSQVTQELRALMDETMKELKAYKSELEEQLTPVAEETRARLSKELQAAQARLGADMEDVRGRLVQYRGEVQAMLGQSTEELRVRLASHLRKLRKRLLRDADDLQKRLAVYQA


Key:
[1] = molecular target: T5, recombinant alipidated human ApoE4 (human, UniProt P02649 19-317); assay: direct ELISA on coated recombinant alipidated ApoE (0.5 ug/ml)
T5 construct: mature; full length recombinant protein made in E. coli or bought; biotinylated for SPR; position 112 is counted on the mature protein, not on the precursor entry; also called recApoE; non-lipidated ApoE4
Summary of the method: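 Plates coated overnight with full-length recombinant alipidated ApoE (0.5 μg/ml), from E. coli or a commercial source, were washed, blocked and incubated with anti-ApoE antibody. Binding was detected with goat anti-mouse IgG-HRP to generate dose-response curves.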
Target sequence in this assay (P02649 19-317 C130R): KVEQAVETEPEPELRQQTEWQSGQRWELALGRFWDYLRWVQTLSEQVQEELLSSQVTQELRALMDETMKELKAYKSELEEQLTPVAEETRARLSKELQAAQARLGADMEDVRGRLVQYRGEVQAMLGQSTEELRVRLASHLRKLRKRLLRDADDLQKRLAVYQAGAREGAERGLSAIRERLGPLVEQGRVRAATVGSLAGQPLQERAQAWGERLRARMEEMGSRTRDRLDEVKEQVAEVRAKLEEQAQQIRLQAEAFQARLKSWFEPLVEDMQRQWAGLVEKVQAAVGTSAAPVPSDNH

[2] = molecular target: T5, recombinant alipidated human ApoE4; assay: SPR (Biacore T200), biotinylated ApoE4 captured on anti-biotin mAb chip, antibody injected, 1:1 fit
Summary of the method: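 Biotinylated recombinant alipidated human ApoE4 (E. coli-expressed or commercial) captured on immobilized anti-biotin mAb; antibody serial dilutions injected at 30 μl/min, e.g. 3-min association, 10-min dissociation. Responses reference-subtracted against irrelevant-IgG flow cell; kinetics from 1:1 Langmuir simultaneous fit of Kon and Koff.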
Target sequence in this assay (P02649 19-317 C130R): as above

[3] = molecular target: T5, recombinant alipidated human ApoE4; assay: ELISA, plate coated with 0.5 ug/ml recombinant apoE4, HRP goat anti-mouse detection, OD450
Description: ELISA plates were coated with 0.5 μg/ml of recombinant apoE2 (square), apoE3 (open circle), or apoE4 (closed circle). Then different concentrations of (A) HJ151, (B) HJ153, (C) HJ154, or (D) HJ156 were loaded on the plates. Horse-radish peroxidase labeled goat anti-mouse secondary antibodies were used to detect binding. […] HJ151 is specific for ApoE4 and HJ156 binds only ApoE3 and ApoE4. FIG. 5E-H are graphs depicting surface plasmon resonance profiles for various antibodies. Anti-ApoE antibodies were serially diluted 3-fold (starting at 100 nM for HJ153 (E), and 1000 nM for HJ151 (F), and […] (G)) for detection of binding to biotinylated-recombinant apoE4 captured on a streptavidin chip. Samples were injected at a flow rate of 30 μl/minute. (H) Apparent KD values of HJ151, HJ153 and HJ156 were calculated based on the SPR experiment.
ELISA plates were coated with 0.5 μg/ml of recombinant apoE2, apoE3, or apoE4. Then different concentrations of HJ151 (FIG. 5A), HJ153 (FIG. 5B), HJ154 (FIG. 5C), or HJ156 (FIG. 5D) were loaded on the plates. Horse-radish peroxidase labeled goat anti-mouse secondary antibodies were used to detect binding. […] HJ151 is specific for ApoE4 and HJ156 binds only ApoE3 and ApoE4. Surface plasmon resonance profiles for various antibodies was also performed.

[4] = molecular target: T1, ApoE4 amino acids 24-164, expressed on …; assay: yeast display of myc-tagged ApoE4 fragment, antibody staining
Description: (§1) Epitope binding of various anti-ApoE antibodies was evaluated multiple ways. Different sequences of human ApoE were expressed on the surface of yeast by yeast display using different plasmids. Different anti-ApoE antibodies were then assessed to determine binding to the different ApoE sequences by immunofluorescence of the yeast cell surface (Table 4). Because none of the anti-ApoE antibodies tested here recognize murine ApoE, the epitope was further narrowed down by comparison of the murine and human ApoE sequences as shown in Tables 4 and 5. DNA constructs containing different regions of ApoE4 with myc tag were transformed into yeast cells. Yeast cells were incubated with HJ15x to detect binding or anti-myc antibody to detect expression.

[5] = molecular target: T2, ApoE4 amino acids 54-164, expressed on …; assay: as above
Description: as §1

[6] = molecular target: T3, ApoE4 amino acids 1-210, expressed on …; assay: as above
Description: as §1

[7] = molecular target: T4, ApoE4 amino acids 1-164, expressed on …; assay: as above
Description: as §1

Row | EC50 [1] [nM] | Kd [2] [nM] | koff [2] [s⁻¹] | kon [2] [M⁻¹ s⁻¹] | EC50 (read off the curve) [3] [nM] | binding result [4] | binding result [5] | binding result [6] | binding result [7] | Binder
1 | 0.44 | 60.2 | 0.00119 | 19700 | ~0.5 | binds | binds | binds | binds | HJ151 (antibody, V domains shown, murine monoclonal antibody from hybridoma; also called HJ151B (biotinylated)) VH: QVQLQQSGAELVRPGASVTLSCKASGYTFTDYEMHWVKQTPVHGLEWIGVIDPEKGGTAYNQKFKGKAILTADKSSSTAYMDLRSLTSEDSAVYYCLKDSWGQGTTLTVSS VL: DVLMTQTPLSLPVSLGDQASISCRSSQTIVHSDGNTYLEWYLQKPGQSPKLLIYKVSNRFSGVPDRFSGSGSGTYFTLKISRVEAEDLGVYYCFQGSHVPCTFGGGTKLEIKR
2 | 0.62 | 216 | 0.00449 | 20700 | ~1 | binds | binds | binds | binds | HJ156 (antibody, V domains shown, murine monoclonal antibody from hybridoma; also called HJ156B (biotinylated)) VH: QVQLQQSGPELVKPGASVKISCKASGYIFTDYYINWVKRRPGQGLEWIGWIFPGSGVSYYNEQFKGKATLTVDKPSNTAYIFLSRLTSEDSAVYFCARYYSSSPFAYWGQGTLVTVSA VL: DVLMTQTPLSLPVSLGDQASISCRSSQNIIHSNGNTYLEWFLQRPGQSPELLIYKVSNRFSGVPDRFSGSGSGTDFTLKISRVEAEDLGVYYCFQGSHVPYTFGGGTKLEIKR
3 | 0.26 | 0.675 | 0.000348 | 516000 | ~0.3 | binds | binds | binds | binds | HJ154 (antibody, V domains shown, murine monoclonal antibody from hybridoma; also called HJ154B (biotinylated)) VH: QVQLQQPGTEFVMSGASVMLSCKASGYIFTNYWLHWVKQRPGHGLEWIGEIDPSDSYSICNDNFKGKSTLTVDKSSSTAYMQLSSLTSEDSAVYYCAGSLGRVGLAYWGQGTLVTVST VL: QIVLTQSPAIMSASPGEKVTMSCSASSSVSNMYWYQQKPGSSPKSWIYRTSNLASGVPARFSGSGSGTSYSLTISNMEAEDAATYYCQHYQNYPLTFGAGTKLELKR
